Assay results from patent publication US20180030149A1.
pKd: −log10 of the molar value.

Molecular target: recombinant human ErbB3 monomeric protein (cleaved rhErbB3) (human) (UniProt P21860)
Test: SPR Biacore 37 C; antibody captured on anti-human Fc, cleaved rhErbB3 (monomer) injected

pKd: 9.28
Substance: U1-59 (antibody)
